Test results published in patent publication US20240350646A1, “METHODS AND COMPOSITIONS FOR DELIVERY TO AND ACROSS THE BLOOD BRAIN BARRIER” (NUtech Ventures, priority 2021, published 2024).

Assay: NP characterization: TEM particle diameter, DLS hydrodynamic size, zeta potential
Format: physicochemical
Protocol: A high voltage transmission electron microscope (TEM) (Tecnai Osiris™, 200 kV) was used to measure particle diameters of PEG diacid coated Gd NPs. A copper grid (PELCO mesh size 400, TED PELLA, INC.) covered with an amorphous carbon membrane was placed onto a filter paper. Then, a sample solution diluted in triply distilled water was dropped over the copper grid by using a micropipette (Eppendorf, 2-20 μL). Dynamic light scattering (DLS) studies of the NPs were conducted using a Malvern Instruments Zetasizer Nano series instrument. Solutions of the NPs were prepared in DPBS (pH 7.4) at a concentration of 0.05 mM. The resulting solutions were filtered with 0.22 μm filters before the measurement. The NP concentration was determined by using an inductively coupled plasma mass spectrometer (ICPMS) (Agilent 7500 cx). To determine this, ˜0.5 mL of the NP solution was taken out and treated with HNO3 to dissolve nanoparticles in the solution completely. A Fourier transform-infrared (FT-IR) (Nicolet AVATAR 380 FT-IR) was used to verify the surface coating. To record the FT-IR absorption spectrum (400-4000 cm^−1), the powder sample was prepared. Peptide attachment to NPs was confirmed using BCA assay. Attaching efficiency was confirmed using the equation, Conjugation Efficiency of peptide (%)=Amount of peptide in NPs/Initial amount of peptide×100.

C1C2-NP: PEG diacid coated ultrasmall Gd NP conjugated with C1C2 peptide SSVSQSTGQIQSKVDSLLNLNSTQATR (SEQ ID NO: 6); claudin-1 targeted (Ac-SSVSQSTGQIQSKVDSLLNLNSTQATR-NH2; also: conjugated to PEG diacid coated ultrasmall Gd nanoparticle)
Zeta Potential, mV (with NPs): 7.81 ± 0.38 mV | Hydrodynamic size (nm) (DLS, DPBS pH 7.4): 14.5 ± 0.13 nm
